Test [1] concerns the target T1, FcγRIa (human, UniProt P12314 16-292).
T1 construct: extracellular domain; Soluble extracellular domain expressed in FreeStyle293 cells, used as analyte in Biacore; also called FcgRI; 1a; not shown: His tag attached to the C terminus
The test can be described thus: SPR (Biacore); Ho Ab vs HoCon Ab GpH7-B3/GpL16-k0. Put shortly: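 On Biacore T100 at 25° C in HBS-EP+, FcγR extracellular domains flowed over test antibodies held by immobilized antigen peptide. Glycine-HCl 10 mM, pH 1.5 stripped captured antibody between cycles; values reported as binding relative to the control antibody.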

Test [2] addresses T1, FcγRIa. Nature of the test: SPR (Biacore); He Ab vs HeCon Ab GpH7-A5/GpH7-B3/GpL16-k0. As for the experimental part:
Analysis of interaction between objective antibody and the FcγR was carried out using Biacore T100 (GE Healthcare). HBS-EP+ (GE Healthcare) was used as the running buffer, and the measurement temperature was set to 25° C. Chips produced by immobilizing the antigen peptide by the amine coupling method to a Series S Sencor Chip CM5 (GE Healthcare), or alternatively, chips produced by allowing preliminarily biotinylated antigen peptides to interact with and immobilize onto a Series S Sensor Chip SA (certified) (GE Healthcare) were used. Antibodies of interest were captured onto an antigen peptide-immobilized chip, and allowed to interact to each FcγR diluted with running buffer. To regenerate and repeatedly use the chip, the antibodies captured on the chip were washed off by reacting 10 mM glycine-HCl, pH 1.5.

T1 sequence (P12314 16-292): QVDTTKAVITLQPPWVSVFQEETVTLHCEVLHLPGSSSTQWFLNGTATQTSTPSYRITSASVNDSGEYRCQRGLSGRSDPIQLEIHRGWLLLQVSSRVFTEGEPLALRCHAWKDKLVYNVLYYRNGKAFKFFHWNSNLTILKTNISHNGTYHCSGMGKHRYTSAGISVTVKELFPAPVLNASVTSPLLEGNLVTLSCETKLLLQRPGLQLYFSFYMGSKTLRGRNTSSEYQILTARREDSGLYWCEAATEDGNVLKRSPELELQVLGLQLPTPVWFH

B1: GpH7-B3 variant T335_07I/GpL16-k0 (antibody, human IgG1, kappa)
heavy: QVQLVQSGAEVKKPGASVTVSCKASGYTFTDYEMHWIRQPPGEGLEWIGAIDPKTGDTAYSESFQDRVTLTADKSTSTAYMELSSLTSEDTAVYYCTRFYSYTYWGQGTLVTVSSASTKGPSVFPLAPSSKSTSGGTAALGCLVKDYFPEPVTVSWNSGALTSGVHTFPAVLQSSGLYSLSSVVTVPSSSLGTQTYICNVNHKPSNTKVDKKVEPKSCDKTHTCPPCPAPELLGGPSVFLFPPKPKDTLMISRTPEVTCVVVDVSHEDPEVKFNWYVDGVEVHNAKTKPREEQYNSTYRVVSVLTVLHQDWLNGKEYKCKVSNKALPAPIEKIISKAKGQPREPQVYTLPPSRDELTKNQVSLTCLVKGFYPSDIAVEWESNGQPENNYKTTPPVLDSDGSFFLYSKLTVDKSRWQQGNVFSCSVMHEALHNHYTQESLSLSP
light: DIVMTQSPLSLPVTPGEPASISCQASESLVHSNRNTYLHWYLQKPGQSPQLLIYKVSNRFSGVPDRFSGSGSGTDFTLKISRVEAEDVGVYYCSQNTHVPPTFGQGTKVEIERTVAAPSVFIFPPSDEQLKSGTASVVCLLNNFYPREAKVQWKVDNALQSGNSQESVTEQDSKDSTYSLSSTLTLSKADYEKHKVYACEVTHQGLSSPVTKSFNRGEC
notes: also called Ho Ab T335_07I
As for B1, the Ho/Con_1a in test [1] is 105 relative binding, control = 100.

B2: GpH7-A5/GpH7-B3 variant S298_11K/GpL16-k0 (antibody, human IgG1, kappa)
heavy 1: not shown
heavy 2: not shown
light: B1 light
notes: also called He Ab S298_11K
In the case of B2, the He/Con_1a in test [2] is 109 relative binding, control = 100.

B3: GpH7-A5/GpH7-B3 variant Q295_14T/GpL16-k0 (antibody, human IgG1, kappa)
heavy 1: not shown
heavy 2: not shown
light: B1 light
notes: also called He Ab Q295_14T
For the molecule B3, the He/Con_1a in test [2] was 103 relative binding, control = 100.

B4: GpH7-A5/GpH7-B3 variant S239_14T/GpL16-k0 (antibody, human IgG1, kappa)
heavy 1: not shown
heavy 2: not shown
light: B1 light
notes: also called He Ab S239_14T
Take B4: in test [2], the He/Con_1a was 101 relative binding, control = 100.

B5: GpH7-A5/GpH7-B3 variant S298_02A/GpL16-k0 (antibody, human IgG1, kappa)
heavy 1: not shown
heavy 2: not shown
light: B1 light
notes: also called He Ab S298_02A; GpH7-A5/GpH7-B3-15-02A/GpL16-k0
As to B5, the He/Con_1a in test [2] is 107 relative binding, control = 100.

B6: GpH7-A5/GpH7-B3 variant Q295_13S/GpL16-k0 (antibody, human IgG1, kappa)
heavy 1: not shown
heavy 2: not shown
light: B1 light
notes: also called He Ab Q295_13S
As for B6, the He/Con_1a in test [2] is 102 relative binding, control = 100.

B7: GpH7-A5/GpH7-B3 variant S239_01G/GpL16-k0 (antibody, human IgG1, kappa)
heavy 1: not shown
heavy 2: not shown
light: B1 light
notes: also called He Ab S239_01G
As for B7, in test [2], the He/Con_1a was 101 relative binding, control = 100.

B8: GpH7-B3 variant T335_08L/GpL16-k0 (antibody, human IgG1, kappa)
heavy: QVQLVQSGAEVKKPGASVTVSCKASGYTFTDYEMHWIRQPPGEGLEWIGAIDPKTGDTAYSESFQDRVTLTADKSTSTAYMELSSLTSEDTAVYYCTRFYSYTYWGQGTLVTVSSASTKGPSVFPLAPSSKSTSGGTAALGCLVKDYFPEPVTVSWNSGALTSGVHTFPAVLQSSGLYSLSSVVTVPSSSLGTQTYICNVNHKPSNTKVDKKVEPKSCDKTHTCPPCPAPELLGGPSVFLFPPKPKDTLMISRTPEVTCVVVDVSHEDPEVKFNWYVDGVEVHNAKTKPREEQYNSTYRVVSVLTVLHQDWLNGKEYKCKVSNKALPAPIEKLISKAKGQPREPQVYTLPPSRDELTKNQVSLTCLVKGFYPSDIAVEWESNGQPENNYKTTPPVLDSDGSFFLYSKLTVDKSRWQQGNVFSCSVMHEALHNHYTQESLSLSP
light: B1 light
notes: also called Ho Ab T335_08L
As to B8, the Ho/Con_1a in test [1] was 105 relative binding, control = 100.

B9: GpH7-A5/GpH7-B3 variant S267_01G/GpL16-k0 (antibody, human IgG1, kappa)
heavy 1: not shown
heavy 2: not shown
light: B1 light
notes: also called He Ab S267_01G
B9: the He/Con_1a in test [2] was 103 relative binding, control = 100.

B10: GpH7-B3 variant Y300_12R/GpL16-k0 (antibody, human IgG1, kappa)
heavy: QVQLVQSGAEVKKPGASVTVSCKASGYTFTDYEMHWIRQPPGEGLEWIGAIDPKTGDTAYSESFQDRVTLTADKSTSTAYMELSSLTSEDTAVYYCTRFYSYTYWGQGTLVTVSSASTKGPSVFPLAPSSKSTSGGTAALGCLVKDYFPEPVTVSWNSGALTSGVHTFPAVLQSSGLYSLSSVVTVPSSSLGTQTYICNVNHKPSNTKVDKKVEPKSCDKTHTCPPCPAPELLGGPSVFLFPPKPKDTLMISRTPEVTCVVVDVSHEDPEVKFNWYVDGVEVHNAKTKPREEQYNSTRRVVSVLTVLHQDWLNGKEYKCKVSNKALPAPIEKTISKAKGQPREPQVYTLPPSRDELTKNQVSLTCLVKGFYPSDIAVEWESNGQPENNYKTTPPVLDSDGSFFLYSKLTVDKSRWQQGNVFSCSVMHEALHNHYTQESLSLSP
light: B1 light
notes: also called Ho Ab Y300_12R
On to B10, for which the Ho/Con_1a in test [1] is 96.5 relative binding, control = 100.

B11: GpH7-A5/GpH7-B3 variant S239_19Q/GpL16-k0 (antibody, human IgG1, kappa)
heavy 1: not shown
heavy 2: not shown
light: B1 light
notes: also called He Ab S239_19Q
Turning to B11, in test [2], the He/Con_1a was 101 relative binding, control = 100.

B12: GpH7-A5/GpH7-B3 variant Q295_04F/GpL16-k0 (antibody, human IgG1, kappa)
heavy 1: not shown
heavy 2: not shown
light: B1 light
notes: also called He Ab Q295_04F
As for B12, the He/Con_1a in test [2] was 102 relative binding, control = 100.

B13: GpH7-A5/GpH7-B3 variant P271_06M/GpL16-k0 (antibody, human IgG1, kappa)
heavy 1: not shown
heavy 2: not shown
light: B1 light
notes: also called He Ab P271_06M
Take B13: in test [2], the He/Con_1a is 102 relative binding, control = 100.

B14: GpH7-A5/GpH7-B3 variant Q295_05P/GpL16-k0 (antibody, human IgG1, kappa)
heavy 1: not shown
heavy 2: not shown
light: B1 light
notes: also called He Ab Q295_05P
For B14, the He/Con_1a in test [2] was 103 relative binding, control = 100.

B15: GpH7-A5/GpH7-B3 variant P271_04F/GpL16-k0 (antibody, human IgG1, kappa)
heavy 1: not shown
heavy 2: not shown
light: B1 light
notes: also called He Ab P271_04F
On to B15, for which the He/Con_1a in test [2] is 102 relative binding, control = 100.

B16: GpH7-A5/GpH7-B3 variant P271_11K/GpL16-k0 (antibody, human IgG1, kappa)
heavy 1: not shown
heavy 2: not shown
light: B1 light
notes: also called He Ab P271_11K
Take B16: in test [2], the He/Con_1a is 103 relative binding, control = 100.

B17: GpH7-B3 variant T335_10E/GpL16-k0 (antibody, human IgG1, kappa)
heavy: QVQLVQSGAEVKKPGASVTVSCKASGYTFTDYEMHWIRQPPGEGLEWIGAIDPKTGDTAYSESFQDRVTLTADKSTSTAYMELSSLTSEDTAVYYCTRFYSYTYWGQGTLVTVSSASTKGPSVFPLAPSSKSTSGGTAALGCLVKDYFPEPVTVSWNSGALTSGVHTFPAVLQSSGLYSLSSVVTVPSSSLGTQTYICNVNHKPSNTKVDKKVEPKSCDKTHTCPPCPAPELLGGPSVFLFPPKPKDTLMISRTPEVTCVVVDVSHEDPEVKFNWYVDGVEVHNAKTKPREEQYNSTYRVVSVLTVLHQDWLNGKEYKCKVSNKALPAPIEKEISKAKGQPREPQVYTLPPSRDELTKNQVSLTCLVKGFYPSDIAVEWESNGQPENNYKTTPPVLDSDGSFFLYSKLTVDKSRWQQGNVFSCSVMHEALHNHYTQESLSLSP
light: B1 light
notes: also called Ho Ab T335_10E
On to B17, for which the Ho/Con_1a in test [1] was 108 relative binding, control = 100.

B18: GpH7-A5/GpH7-B3 variant S239_18N/GpL16-k0 (antibody, human IgG1, kappa)
heavy 1: not shown
heavy 2: not shown
light: B1 light
notes: also called He Ab S239_18N
On to B18, for which the He/Con_1a in test [2] is 101 relative binding, control = 100.

B19: GpH7-A5/GpH7-B3 variant P271_07I/GpL16-k0 (antibody, human IgG1, kappa)
heavy 1: not shown
heavy 2: not shown
light: B1 light
notes: also called He Ab P271_07I
For B19, the He/Con_1a in test [2] is 102 relative binding, control = 100.

B20: GpH7-A5/GpH7-B3 variant S267_09D/GpL16-k0 (antibody, human IgG1, kappa)
heavy 1: not shown
heavy 2: not shown
light: B1 light
notes: also called He Ab S267_09D
For the molecule B20, the He/Con_1a in test [2] was 110 relative binding, control = 100.

B21: GpH7-A5/GpH7-B3 variant Q295_18N/GpL16-k0 (antibody, human IgG1, kappa)
heavy 1: not shown
heavy 2: not shown
light: B1 light
notes: also called He Ab Q295_18N
With B21, the He/Con_1a in test [2] was 102 relative binding, control = 100.

B22: GpH7-A5/GpH7-B3 variant Q295_07I/GpL16-k0 (antibody, human IgG1, kappa)
heavy 1: not shown
heavy 2: not shown
light: B1 light
notes: also called He Ab Q295_07I
Take B22: the He/Con_1a in test [2] is 103 relative binding, control = 100.

B23: GpH7-A5/GpH7-B3 variant S239_09D/GpL16-k0 (antibody, human IgG1, kappa)
heavy 1: not shown
heavy 2: not shown
light: B1 light
notes: also called He Ab S239_09D
For the molecule B23, in test [2], the He/Con_1a is 101 relative binding, control = 100.

B24: GpH7-A5/GpH7-B3 variant S298_01G/GpL16-k0 (antibody, human IgG1, kappa)
heavy 1: not shown
heavy 2: not shown
light: B1 light
notes: also called He Ab S298_01G
Take B24: the He/Con_1a in test [2] was 104 relative binding, control = 100.

B25: GpH7-A5/GpH7-B3 variant S267_02A/GpL16-k0 (antibody, human IgG1, kappa)
heavy 1: not shown
heavy 2: not shown
light: B1 light
notes: also called He Ab S267_02A
B25: the He/Con_1a in test [2] was 109 relative binding, control = 100.

B26: GpH7-B3 variant T335_12R/GpL16-k0 (antibody, human IgG1, kappa)
heavy: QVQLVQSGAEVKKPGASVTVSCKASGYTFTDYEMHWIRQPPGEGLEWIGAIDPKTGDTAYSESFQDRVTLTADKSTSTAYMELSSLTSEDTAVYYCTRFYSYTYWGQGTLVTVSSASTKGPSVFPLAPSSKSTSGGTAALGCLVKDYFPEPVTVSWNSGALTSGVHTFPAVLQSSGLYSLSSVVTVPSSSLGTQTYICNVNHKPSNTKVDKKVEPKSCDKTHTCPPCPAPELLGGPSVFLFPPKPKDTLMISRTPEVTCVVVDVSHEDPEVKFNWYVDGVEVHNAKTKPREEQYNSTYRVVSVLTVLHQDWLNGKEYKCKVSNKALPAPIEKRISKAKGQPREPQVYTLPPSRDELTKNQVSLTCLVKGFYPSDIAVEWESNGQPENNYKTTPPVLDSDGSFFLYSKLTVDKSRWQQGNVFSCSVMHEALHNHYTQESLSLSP
light: B1 light
notes: also called Ho Ab T335_12R
B26: the Ho/Con_1a in test [1] was 106 relative binding, control = 100.

B27: GpH7-A5/GpH7-B3 variant S267_03V/GpL16-k0 (antibody, human IgG1, kappa)
heavy 1: not shown
heavy 2: not shown
light: B1 light
notes: also called He Ab S267_03V
For the molecule B27, the He/Con_1a in test [2] was 106 relative binding, control = 100.

B28: GpH7-B3 variant V266_19Q/GpL16-k0 (antibody, human IgG1, kappa)
heavy: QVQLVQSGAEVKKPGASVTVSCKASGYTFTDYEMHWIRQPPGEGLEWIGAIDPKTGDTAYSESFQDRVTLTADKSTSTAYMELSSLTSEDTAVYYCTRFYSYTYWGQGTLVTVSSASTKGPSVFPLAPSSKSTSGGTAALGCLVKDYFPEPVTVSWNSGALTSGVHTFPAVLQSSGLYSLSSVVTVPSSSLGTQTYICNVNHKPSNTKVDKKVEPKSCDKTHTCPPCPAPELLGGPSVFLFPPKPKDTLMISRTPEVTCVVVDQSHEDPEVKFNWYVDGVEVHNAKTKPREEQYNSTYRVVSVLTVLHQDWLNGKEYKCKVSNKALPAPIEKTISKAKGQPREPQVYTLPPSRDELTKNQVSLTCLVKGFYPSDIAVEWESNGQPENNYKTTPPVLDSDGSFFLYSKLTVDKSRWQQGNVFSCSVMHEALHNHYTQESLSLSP
light: B1 light
notes: also called Ho Ab V266_19Q
For B28, the Ho/Con_1a in test [1] is 91.2 relative binding, control = 100.

B29: GpH7-A5/GpH7-B3 variant Q295_08L/GpL16-k0 (antibody, human IgG1, kappa)
heavy 1: not shown
heavy 2: not shown
light: B1 light
notes: also called He Ab Q295_08L
Regarding B29, in test [2], the He/Con_1a is 105 relative binding, control = 100.

B30: GpH7-A5/GpH7-B3 variant Q295_03V/GpL16-k0 (antibody, human IgG1, kappa)
heavy 1: not shown
heavy 2: not shown
light: B1 light
notes: also called He Ab Q295_03V
Take B30: in test [2], the He/Con_1a was 104 relative binding, control = 100.

B31: GpH7-A5/GpH7-B3 variant P271_20W/GpL16-k0 (antibody, human IgG1, kappa)
heavy 1: not shown
heavy 2: not shown
light: B1 light
notes: also called He Ab P271_20W
As to B31, the He/Con_1a in test [2] is 103 relative binding, control = 100.

B32: GpH7-B3 variant T335_09D/GpL16-k0 (antibody, human IgG1, kappa)
heavy: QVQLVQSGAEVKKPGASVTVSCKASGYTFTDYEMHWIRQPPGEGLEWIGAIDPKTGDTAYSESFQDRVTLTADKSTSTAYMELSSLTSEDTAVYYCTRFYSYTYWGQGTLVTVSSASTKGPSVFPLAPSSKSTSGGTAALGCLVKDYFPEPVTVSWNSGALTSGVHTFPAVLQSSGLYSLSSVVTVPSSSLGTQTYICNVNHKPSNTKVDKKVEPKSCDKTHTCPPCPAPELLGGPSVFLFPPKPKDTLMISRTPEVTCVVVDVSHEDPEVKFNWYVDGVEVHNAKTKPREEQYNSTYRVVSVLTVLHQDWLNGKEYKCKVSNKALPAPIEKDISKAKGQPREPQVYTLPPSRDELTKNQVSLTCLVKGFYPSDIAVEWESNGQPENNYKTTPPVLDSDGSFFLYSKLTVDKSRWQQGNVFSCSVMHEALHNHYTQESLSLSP
light: B1 light
notes: also called Ho Ab T335_09D
For B32, the Ho/Con_1a in test [1] is 107 relative binding, control = 100.

B33: GpH7-A5/GpH7-B3 variant S298_03V/GpL16-k0 (antibody, human IgG1, kappa)
heavy 1: not shown
heavy 2: not shown
light: B1 light
notes: also called He Ab S298_03V
On to B33, for which the He/Con_1a in test [2] was 110 relative binding, control = 100.

B34: GpH7-B3 variant T335_11K/GpL16-k0 (antibody, human IgG1, kappa)
heavy: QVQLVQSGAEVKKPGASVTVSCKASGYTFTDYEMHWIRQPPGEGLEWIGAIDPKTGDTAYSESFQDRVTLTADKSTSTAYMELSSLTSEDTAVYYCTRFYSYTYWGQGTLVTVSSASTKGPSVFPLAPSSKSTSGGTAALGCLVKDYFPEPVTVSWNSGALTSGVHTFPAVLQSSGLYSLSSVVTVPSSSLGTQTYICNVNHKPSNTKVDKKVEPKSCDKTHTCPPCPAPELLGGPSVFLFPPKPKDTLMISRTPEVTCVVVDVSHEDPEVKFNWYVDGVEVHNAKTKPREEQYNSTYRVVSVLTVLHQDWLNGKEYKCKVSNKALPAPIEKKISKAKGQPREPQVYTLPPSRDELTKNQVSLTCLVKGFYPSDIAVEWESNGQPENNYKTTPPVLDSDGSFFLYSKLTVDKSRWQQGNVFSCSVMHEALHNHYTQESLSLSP
light: B1 light
notes: also called Ho Ab T335_11K
Turning to B34, the Ho/Con_1a in test [1] is 103 relative binding, control = 100.

B35: GpH7-A5/GpH7-B3 variant S267_08L/GpL16-k0 (antibody, human IgG1, kappa)
heavy 1: not shown
heavy 2: not shown
light: B1 light
notes: also called He Ab S267_08L
As to B35, the He/Con_1a in test [2] is 101 relative binding, control = 100.

B36: GpH7-B3 variant T335_15Y/GpL16-k0 (antibody, human IgG1, kappa)
heavy: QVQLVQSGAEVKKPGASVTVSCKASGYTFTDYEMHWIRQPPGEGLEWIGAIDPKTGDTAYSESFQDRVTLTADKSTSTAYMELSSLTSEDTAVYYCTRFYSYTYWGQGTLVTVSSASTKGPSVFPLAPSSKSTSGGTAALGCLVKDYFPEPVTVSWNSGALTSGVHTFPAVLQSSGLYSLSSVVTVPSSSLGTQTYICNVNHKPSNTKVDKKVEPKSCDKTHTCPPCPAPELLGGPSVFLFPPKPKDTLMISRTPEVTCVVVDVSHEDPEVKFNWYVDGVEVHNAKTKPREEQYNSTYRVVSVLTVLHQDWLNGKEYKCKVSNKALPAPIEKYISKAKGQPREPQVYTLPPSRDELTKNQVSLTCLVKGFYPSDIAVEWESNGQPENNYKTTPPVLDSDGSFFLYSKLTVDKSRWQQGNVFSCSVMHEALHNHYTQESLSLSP
light: B1 light
notes: also called Ho Ab T335_15Y
As for B36, the Ho/Con_1a in test [1] was 106 relative binding, control = 100.

B37: GpH7-A5/GpH7-B3 variant S267_16H/GpL16-k0 (antibody, human IgG1, kappa)
heavy 1: not shown
heavy 2: not shown
light: B1 light
notes: also called He Ab S267_16H
Regarding B37, the He/Con_1a in test [2] was 100 relative binding, control = 100.

B38: GpH7-A5/GpH7-B3 variant P271_13S/GpL16-k0 (antibody, human IgG1, kappa)
heavy 1: not shown
heavy 2: not shown
light: B1 light
notes: also called He Ab P271_13S
As for B38, the He/Con_1a in test [2] was 102 relative binding, control = 100.

B39: GpH7-A5/GpH7-B3 variant Q295_02A/GpL16-k0 (antibody, human IgG1, kappa)
heavy 1: not shown
heavy 2: not shown
light: B1 light
notes: also called He Ab Q295_02A
B39: the He/Con_1a in test [2] is 104 relative binding, control = 100.

B40: GpH7-A5/GpH7-B3 variant P271_12R/GpL16-k0 (antibody, human IgG1, kappa)
heavy 1: not shown
heavy 2: not shown
light: B1 light
notes: also called He Ab P271_12R
Regarding B40, the He/Con_1a in test [2] was 102 relative binding, control = 100.

For the origin of these results see patent US20150344570A1 (published 2015).
